Here are results for 1 molecule from PMC4357707 (Nucleic Acids Research, 2015).

As a reminder, the Kd is the constant that tells how readily two partners part at equilibrium.

For one series, the target named is T1, HEN1 Δ38-45 (Arabidopsis thaliana, UniProt Q9C5Q8 1-37+=G+46-942, internal_change).
T1 sequence: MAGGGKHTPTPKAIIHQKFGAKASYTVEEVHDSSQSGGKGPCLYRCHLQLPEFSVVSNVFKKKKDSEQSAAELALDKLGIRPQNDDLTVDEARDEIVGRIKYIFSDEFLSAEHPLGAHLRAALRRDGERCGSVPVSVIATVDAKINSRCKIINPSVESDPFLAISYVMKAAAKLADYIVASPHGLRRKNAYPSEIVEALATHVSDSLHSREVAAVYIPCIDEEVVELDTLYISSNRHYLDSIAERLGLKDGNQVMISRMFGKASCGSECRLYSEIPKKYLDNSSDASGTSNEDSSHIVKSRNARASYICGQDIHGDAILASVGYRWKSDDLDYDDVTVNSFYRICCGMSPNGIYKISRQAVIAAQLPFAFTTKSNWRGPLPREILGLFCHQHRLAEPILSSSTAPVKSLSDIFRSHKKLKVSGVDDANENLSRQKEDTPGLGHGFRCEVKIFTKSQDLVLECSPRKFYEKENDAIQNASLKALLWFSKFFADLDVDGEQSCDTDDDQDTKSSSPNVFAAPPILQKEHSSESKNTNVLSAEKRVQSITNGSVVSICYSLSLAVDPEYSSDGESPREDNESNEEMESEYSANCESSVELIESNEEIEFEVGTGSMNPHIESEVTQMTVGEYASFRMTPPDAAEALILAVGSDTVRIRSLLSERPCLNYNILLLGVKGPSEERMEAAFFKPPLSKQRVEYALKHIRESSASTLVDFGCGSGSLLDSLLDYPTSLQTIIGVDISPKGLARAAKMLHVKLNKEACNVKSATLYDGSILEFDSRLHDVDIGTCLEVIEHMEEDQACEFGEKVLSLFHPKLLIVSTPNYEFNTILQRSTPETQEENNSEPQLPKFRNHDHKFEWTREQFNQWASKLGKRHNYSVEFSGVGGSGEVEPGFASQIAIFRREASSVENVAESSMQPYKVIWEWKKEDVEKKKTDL
The experiment in a line: EMSA. A general note: A gel shift assay detects complexes by their altered migration in electrophoresis.

Another series deals with T2, HEN1-RHK389,397,477AAA (Arabidopsis thaliana, UniProt Q9C5Q8 1-942, R389A;H397A;K477A).
T2 sequence: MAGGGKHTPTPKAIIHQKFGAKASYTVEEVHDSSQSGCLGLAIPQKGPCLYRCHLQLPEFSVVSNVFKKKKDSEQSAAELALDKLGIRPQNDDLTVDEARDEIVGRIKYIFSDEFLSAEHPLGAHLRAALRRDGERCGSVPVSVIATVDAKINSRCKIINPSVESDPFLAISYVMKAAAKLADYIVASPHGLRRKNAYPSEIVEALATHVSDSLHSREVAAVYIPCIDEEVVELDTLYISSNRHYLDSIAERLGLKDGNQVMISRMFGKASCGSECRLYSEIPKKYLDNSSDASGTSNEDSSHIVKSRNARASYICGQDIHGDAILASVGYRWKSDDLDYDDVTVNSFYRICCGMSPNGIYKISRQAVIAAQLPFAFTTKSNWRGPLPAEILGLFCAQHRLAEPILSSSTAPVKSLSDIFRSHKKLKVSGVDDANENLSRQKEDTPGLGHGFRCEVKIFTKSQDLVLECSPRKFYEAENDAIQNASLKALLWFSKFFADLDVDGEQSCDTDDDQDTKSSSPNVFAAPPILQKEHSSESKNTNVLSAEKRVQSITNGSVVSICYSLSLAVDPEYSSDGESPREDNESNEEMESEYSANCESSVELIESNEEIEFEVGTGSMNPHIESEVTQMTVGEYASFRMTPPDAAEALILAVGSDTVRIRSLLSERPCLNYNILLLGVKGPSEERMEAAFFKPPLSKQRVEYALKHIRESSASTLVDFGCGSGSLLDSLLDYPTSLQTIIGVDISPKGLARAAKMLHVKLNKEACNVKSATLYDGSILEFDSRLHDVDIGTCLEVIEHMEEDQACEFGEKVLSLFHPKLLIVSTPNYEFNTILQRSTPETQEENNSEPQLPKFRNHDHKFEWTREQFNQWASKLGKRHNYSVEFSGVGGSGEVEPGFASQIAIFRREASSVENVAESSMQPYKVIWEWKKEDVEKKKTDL
The experiment in a line: EMSA.

B1: miR173/miR173* (dsRNA)
RNA 1: UUCGCUUGCAGAGAGAAAUCAC
RNA 2: GAUUCUCUGUGUAAGCGAAAG
On to B1, for which the Kd in the series with HEN1 Δ38-45 turned out to be 0.79 ± 0.05 nM; with HEN1-RHK389,397,477AAA it was 302 ± 29 nM.
